T1: mouse Rpa70N (residues 1–122) (mouse, UniProt Q8VEE4 1-122)
T1 construct: Rpa70, mouse, residues 1-122 (OBN domain); also called Rpa70N polypeptide; not shown: His6-SUMO, N-terminal, cleaved
T1 sequence (looked up): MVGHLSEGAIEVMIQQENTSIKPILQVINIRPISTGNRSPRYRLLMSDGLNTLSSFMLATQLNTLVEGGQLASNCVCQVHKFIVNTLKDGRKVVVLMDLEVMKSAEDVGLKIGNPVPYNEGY

B1: GST-tagged mouse Dna2 α1OB (α1 helix and OB domain, residues 1 to 122) (domain or fragment, UniProt Q6ZQJ5 1-122, looked up)
chain: MEPLDELDLLLLEEDGGAEAVPRVELLRKKADALFPETVLSRGVDNRYLVLAVETSQNERGAEEKRLHVTASQDREHEVLCILRNGWSSVPVEPGDIVHLEGDCTSEPWIIDDDFGYFILYP
notes: Dna2 nuclease-helicase, mouse, residues 1-122 (α1 helix and OB domain); full-length mouse Dna2 has residues 1 to 1062; Cloned into a pGEX-4T vector; also called GST-α1OB
B2: GST-tagged mouse Dna2 α1 (residues 1–20) (peptide, UniProt Q6ZQJ5 1-20, looked up)
chain: MEPLDELDLLLLEEDGGAEA
notes: Dna2, mouse, residues 1-20 (α1 helix); Cloned into a pGEX-4T vector; also called GST-α1
B3: GST-tagged mouse Dna2 OB (residues 21–122) (domain or fragment, UniProt Q6ZQJ5 21-122, looked up)
chain: VPRVELLRKKADALFPETVLSRGVDNRYLVLAVETSQNERGAEEKRLHVTASQDREHEVLCILRNGWSSVPVEPGDIVHLEGDCTSEPWIIDDDFGYFILYP
notes: Dna2, mouse, residues 21-122 (OB domain); Cloned into a pGEX-4T vector; also called GST-OB
B4: mouse Rpa heterotrimer (Rpa70, Rpa32, Rpa14) (complex)
chain 1: MVGHLSEGAIEVMIQQENTSIKPILQVINIRPISTGNRSPRYRLLMSDGLNTLSSFMLATQLNTLVEGGQLASNCVCQVHKFIVNTLKDGRKVVVLMDLEVMKSAEDVGLKIGNPVPYNEGYGQQQQQQQQQQQQAVPSPASAATPPASKPQPQNGSLGMGSTAAKAYGASKPFGKPAGTGLLQPSGGTQSKVVPIASLTPYQSKWTICARVTNKSQIRTWSNSRGEGKLFSLELVDESGEIRATAFNEQVDKFFPLIEVNKVYYFSKGALKIANKQFSAVKNDYEMTFNNETSVLPCEDGHHLPTVQFDFTGIGDLESKAKDALVDIIGICKSYEDSIKITVKSNNREVAKRNIYLMDMSGKVVTTTLWGEDADKFDGSRQPVMAIKGARVSDFGGRSLSVLSSSTVIVNPDIPEAYKLRGWFDSEGQALDGVSISDHRSGGAGGGNTNWKTLHEAKSENLGQGDKADYFSTVAAVVFLRKENCMYQACPTQDCNKKVIDQQNGLYRCEKCDREFPNFKYRMILSANIADFQENQWVTCFQESAEAILGQNTMYLGELKEKNEQAFEEVFQNANFRSFTFRIRVKLETYNDESRIKATVMDVKPVDFRDYGRRLIANIRKNM
chain 2: MWNSGFESFSSSTYGGAGGYTQSPGGFGSPTPSQAEKKSRVRAQHIVPCTISQLLSATLTDEVFRIGDVEISQVTIVGIIRHAEKAPTNIVYKIDDMTAPPMDVRQWVDTDDASGENAVVPPETYVKVAGHLRSFQNKKSLVAFKIIPLEDMNEFTAHILEVVNSHMMLSKPNSQASAGRPSMSNPGMSEPGNFSGNNFMPANGLTVVQNQVLNLIKACPRPEGLNFQDLRSQLQHMPVPSIKQAVDFLCNEGHIYSTVDDDHFKSTDAE
chain 3: MEDIMQLPKARVNASMLPQYIDRPVCFVGKLEKIHPTGKMFILSDGEGKNGTIELMEPLDEEISGIVEVVGKVTAKATVLCASYTLFKEDTNRFDLELYNEAVKIINELPQFFPVGLPQHE
notes: Rpa70 subunit of Replication Protein A, mouse; Rpa32 subunit of Replication Protein A, mouse; Rpa14 subunit of Replication Protein A, mouse; The GST tag on Rpa32 is called cleavable; also called heterotrimeric Rpa; full-length Rpa; source: Hi-5 insect cells co-infected with two baculoviruses, purified as described (Fan and Pavletich, 2012); copies: + +
B5: human Dna2 α1OB (residues 1–122) (domain or fragment, UniProt P51530 1-122, looked up)
chain: MEQLNELELLMEKSFWEEAELPAELFQKKVVASFPRTVLSTGMDNRYLVLAVNTVQNKEGNCEKRLVITASQSLENKELCILRNDWCSVPVEPGDIIHLEGDCTSDTWIIDKDFGYLILYPD
notes: Dna2, human, residues 1-122 (α1 helix and OB domain); source: E. coli BL21DE3, purified
B6: human Dna2 α1 (residues 1–20), polypeptide used in ITC (peptide, UniProt P51530 1-20, looked up)
chain: MEQLNELELLMEKSFWEEAE
notes: Dna2, human, residues 1-20 (α1 helix); also called Dna2 α1 helix; source: E. coli BL21DE3, purified

Assays:
Conditions in all cases: both partners purified
[1] = target: B4; assay: pull-down; GST-tagged mouse Dna2 fragment or GST (30 μM in Figure 4A) with an equal molar amount of Rpa or Rpa fragment; 20 mM Tris-HCl, 80 mM NaCl, 0.3 mM TCEP, 2% glycerol, pH 8.0, 4°C, 30 min, then glutathione beads; eluted with 20 mM glutathione, SDS-PAGE
[2] = target: T2, mouse Rpa70NAB (Rpa70 fragment with the OBN, DBD-A and DBD-B domains, residues 1 to 431) (mouse, UniProt Q8VEE4 1-431); assay: as above
T2 construct: Rpa70, mouse, residues 1-431 (OBN, DBD-A, DBD-B); not shown: His6-SUMO, N-terminal, cleaved

[3] = target: T1, mouse Rpa70N (residues 1–122); assay: as above
[4] = target: T3, mouse Rpa70AB (residues 191–431) (mouse, UniProt Q8VEE4 191-431); assay: as above
T3 construct: Rpa70, mouse, residues 191-431 (DBD-A and DBD-B); also called Rpa70AB polypeptide; not shown: His6-SUMO, N-terminal, cleaved

[5] = target: B1; assay: pull-down; GST pull-down as a1 with (dT)24 or (dT)8 ssDNA added; concentrations shown in the figure; bound Rpa70 quantified relative to the lane without DNA
[6] = target: T4, human Rpa70NAB (residues 1–422) (human, UniProt P27694 1-422); assay: ITC; MicroCal ITC200, 20°C, 20 mM HEPES, 80 mM NaCl, 0.2 mM TCEP, pH 7.5; human polypeptides
T4 construct: Rpa70, human, residues 1-422 (OBN, DBD-A, DBD-B); source: E. coli BL21DE3, purified
T4 sequence (P27694 1-422): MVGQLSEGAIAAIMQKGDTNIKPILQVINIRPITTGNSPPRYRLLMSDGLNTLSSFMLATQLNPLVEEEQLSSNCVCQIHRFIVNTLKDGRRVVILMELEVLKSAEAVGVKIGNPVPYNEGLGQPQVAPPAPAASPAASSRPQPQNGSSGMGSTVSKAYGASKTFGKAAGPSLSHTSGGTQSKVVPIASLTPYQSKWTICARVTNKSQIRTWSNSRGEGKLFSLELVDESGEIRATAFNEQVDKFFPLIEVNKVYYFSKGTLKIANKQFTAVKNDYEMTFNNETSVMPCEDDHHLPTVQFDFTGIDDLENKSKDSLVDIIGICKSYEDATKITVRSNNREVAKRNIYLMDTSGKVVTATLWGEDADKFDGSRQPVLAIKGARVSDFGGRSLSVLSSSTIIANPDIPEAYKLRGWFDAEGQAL

[7] = target: T5, human Rpa70N (OBN domain of Rpa70, residues 1–120) (human, UniProt P27694 1-120); assay: as above
T5 construct: Rpa70, human, residues 1-120 (OBN domain); Used in ITC and in the co-crystals; also called Rpa70 OBN; RPA70 OBN; source: E. coli BL21DE3, purified
T5 sequence (P27694 1-120): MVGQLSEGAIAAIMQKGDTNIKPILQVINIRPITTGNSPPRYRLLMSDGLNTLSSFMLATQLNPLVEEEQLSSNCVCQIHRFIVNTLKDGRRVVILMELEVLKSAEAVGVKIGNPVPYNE

## B1
[1]
  binding result: binds
[2]
  binding result: binds

## B2
[3]
  binding result: binds

## B3
[4]
  binding result: binds

## B4
[5]
  fold reduction of bound Rpa by one molar equivalent of (dT)24 ssDNA: ~4 fold

## B5
[6]
  Kd: 12 ± 1 µM

## B6
[7]
  Kd: 34 ± 7 µM

Source: publication PMC4716839 (eLife, 2015)
